Primed or numbered codes have the meaning given here. FITC′ = fluorescein isothiocyanate

First the molecules themselves.
B1: FITC-DREB2A(246-272) WT (peptide, UniProt O82132 246-272, looked up)
peptide: {FITC′}-NDVDQSHLDSSDMFDVDELLRDLNGDD-NH2
modifications: also: acetylation stated, site not given here
notes: also called fluorescently labeled DREB2A(244-272)-WT; source: synthetic peptide, bought: TAG Copenhagen A/S (>98% purity)
B2: RCD1-RST(499-572) (domain or fragment, Arabidopsis thaliana, UniProt Q8RY59 499-572, looked up)
chain: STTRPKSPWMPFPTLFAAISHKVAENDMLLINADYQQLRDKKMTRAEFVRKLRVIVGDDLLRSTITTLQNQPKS
notes: also called AtRCD1-RST; αα-hub RCD1-RST; source: E. coli BL21(DE3), purified (Source 15S cation exchange, Superdex 75 SEC)
B3: FITC-DREB2A(246-272) D267A (peptide, UniProt O82132 246-272, looked up)
peptide: {FITC′}-NDVDQSHLDSSDMFDVDELLRALNGDD-NH2
modifications: also: acetylation stated, site not given here
notes: also called DREB2A-D267A; DREB2A(244-272) variant D267A; source: synthetic peptide, bought: TAG Copenhagen A/S (>98% purity)
B4: DREB2A(244-272)-R266G (peptide, UniProt O82132 244-272, looked up)
chain: WPNDVDQSHLDSSDMFDVDELLGDLNGDD
notes: Expressed as GST-tagged peptide; 13C,15N-labelled for NMR, unlabelled for ITC; also called DREB2A-R266G; source: E. coli BL21(DE3), purified (Glutathione Sepharose 4B, reversed phase Vydac C18)
B5: DREB2A(244-272)-D267L (peptide, UniProt O82132 244-272, looked up)
chain: WPNDVDQSHLDSSDMFDVDELLRLLNGDD
notes: Expressed as GST-tagged peptide; 13C,15N-labelled for NMR, unlabelled for ITC; also called DREB2A-D267L; source: E. coli BL21(DE3), purified (Glutathione Sepharose 4B, reversed phase Vydac C18)
B6: FITC-DREB2A(246-272) R266G (peptide, UniProt O82132 246-272, looked up)
peptide: {FITC′}-NDVDQSHLDSSDMFDVDELLGDLNGDD-NH2
modifications: also: acetylation stated, site not given here
notes: also called fluorescently labeled DREB2A(244-272)-R266G; DREB2A-R266G; source: synthetic peptide, bought: TAG Copenhagen A/S (>98% purity)
B7: FITC-DREB2A(246-272) D267L (peptide, UniProt O82132 246-272, looked up)
peptide: {FITC′}-NDVDQSHLDSSDMFDVDELLRLLNGDD-NH2
modifications: also: acetylation stated, site not given here
notes: also called fluorescently labeled DREB2A(244-272)-D267L; DREB2A-D267L; source: synthetic peptide, bought: TAG Copenhagen A/S (>98% purity)
B8: DREB2A(244-272)-WT (peptide, UniProt O82132 244-272, looked up)
chain: WPNDVDQSHLDSSDMFDVDELLRDLNGDD
notes: Expressed as GST-tagged peptide; 13C,15N-labelled for NMR, unlabelled for ITC; also called DREB2A-WT; source: E. coli BL21(DE3), purified (Glutathione Sepharose 4B, reversed phase Vydac C18)
B9: FITC-DREB2A(246-272) R266A (peptide, UniProt O82132 246-272, looked up)
peptide: {FITC′}-NDVDQSHLDSSDMFDVDELLADLNGDD-NH2
modifications: also: acetylation stated, site not given here
notes: also called DREB2A-R266A; DREB2A(244-272) variant R266A; source: synthetic peptide, bought: TAG Copenhagen A/S (>98% purity)

In assay [1] the target is DREB2A 244-272 (Arabidopsis thaliana) (UniProt O82132). The assay can be described thus: stopped-flow kinetics. To be noted: cited from earlier work.
The target of assay [2] is B2. Description: stopped-flow fluorescence spectroscopy; 0.1 µM FITC-DREB2A peptide mixed with 1-6 µM RCD1-RST(499-572) (kon); preformed complex 1:0.1 µM displaced with 5-60 µM unlabelled DREB2A(244-272) (koff); Kd from the rate constants; 10 °C, 50 mM HEPES pH 7.4, 100 mM NaCl. To be noted: both partners purified.
Assay [3] concerns the target B2. The assay can be described thus: stopped-flow fluorescence spectroscopy; association and displacement (dissociation) kinetics; 10 °C, 50 mM HEPES pH 7.4, 500 mM NaCl. To be noted: both partners purified.
Assay [4] addresses B2. The assay can be described thus: stopped-flow fluorescence spectroscopy; association kinetics; 10 °C, 50 mM HEPES pH 7.4, 150 mM NaCl. To be noted: both partners purified.
In assay [5] the target is B2. The assay can be described thus: stopped-flow fluorescence spectroscopy; association and displacement (dissociation) kinetics; 10 °C, 50 mM HEPES pH 7.4, 300 mM NaCl. To be noted: both partners purified.
In assay [6] the target is B2. Description: stopped-flow fluorescence spectroscopy; association and displacement (dissociation) kinetics; 10 °C, 50 mM HEPES pH 7.4, 200 mM NaCl. The following applies: both partners purified.
In assay [7] the target is B2. Description: stopped-flow fluorescence spectroscopy; association and displacement (dissociation) kinetics; 10 °C, 50 mM HEPES pH 7.4, 800 mM NaCl. To be noted: both partners purified.
Assay [8] deals with B2. Description: stopped-flow fluorescence spectroscopy; association kinetics; 10 °C, 50 mM HEPES pH 7.4, 50 mM NaCl. To be noted: both partners purified.
For assay [9], the target named is B8. The assay can be described thus: ITC; 9-12 µM DREB2A(244-272) peptide in the cell, 92-100 µM RCD1-RST(499-572) in the syringe; 25 °C, 50 mM HEPES pH 7.4, 300 mM NaCl; one set of sites model; n = 3. To be noted: both partners purified. (In general: ITC needs no label: the signal is the heat of the interaction.)
In assay [10] the target is B2. The assay can be described thus: stopped-flow fluorescence spectroscopy; 0.1 µM FITC-DREB2A peptide mixed with 1-6 µM RCD1-RST(499-572) (kon); preformed complex 1:0.1 µM displaced with 5-60 µM unlabelled DREB2A(244-272) (koff); Kd from the rate constants; 10 °C, 50 mM HEPES pH 7.4, 100 mM NaCl. To be noted: both partners purified. This is another data set of the same source.

The target in assay [11] is B2. Description: ITC; 9-12 µM DREB2A(244-272) peptide in the cell, 92-100 µM RCD1-RST(499-572) in the syringe; 25 °C, 50 mM HEPES pH 7.4, 300 mM NaCl; one set of sites model; n = 3. The following applies: both partners purified.

What is called Kd is the free concentration of one partner at which half of the binding sites on the other are occupied at equilibrium, for simple one-to-one binding. On to RCD1 499-572 (from UniProt Q8RY59), for which the dissociation constant Kd in [1] was 0.8 nM.
For orientation: koff means the rate constant with which the complex falls apart. In general, kon refers to the second-order rate constant of association. In the case of B1, the koff in assay [2] turned out to be 0.18 s⁻¹; in assay [3], 0.94 s⁻¹; in assay [5], 0.53 s⁻¹; in assay [6] it was 0.4 s⁻¹; in [7], 1.78 s⁻¹. The kon in assay [2] amounted to 2.45e+08 M⁻¹ s⁻¹; in assay [3], 2.3e+07 M⁻¹ s⁻¹; in [4] it was 1.18e+08 M⁻¹ s⁻¹; in [5], 3.6e+07 M⁻¹ s⁻¹; in [6] it was 4.5e+07 M⁻¹ s⁻¹; in assay [7], 8e+06 M⁻¹ s⁻¹. In [8], this molecule registered an association rate constant (kon) of 3.35e+08 M⁻¹ s⁻¹.
One may read the stoichiometry N as a count of units in the complex or per binding partner. B2: in assay [9], the dH is -16.3 kcal/mol and the “stoichiometry N” value was 0.84.
In assay [10], B3 registered a Kd of 0.32 nM, a koff of 0.07 s⁻¹ and an association rate constant (kon) of 2.22e+08 M⁻¹ s⁻¹.
B4 registered a dissociation constant Kd in assay [11] of 369 nM.
Same read-out and setting: the figure for B5 is 66 nM.
Turning to B6, the on-rate (kon) in assay [2] was determined as 2.06e+08 M⁻¹ s⁻¹; in [3], 2.1e+07 M⁻¹ s⁻¹; in [4], 1.75e+08 M⁻¹ s⁻¹; in [5], 5.59e+07 M⁻¹ s⁻¹; in [6] it was 1.2e+08 M⁻¹ s⁻¹; in [7], 1.06e+07 M⁻¹ s⁻¹. The kon stood at 4.13e+08 M⁻¹ s⁻¹ in assay [8] and 2.3e+08 M⁻¹ s⁻¹ in assay [10]. Besides, the values for the dissociation rate constant (koff) in [7] and in [10] were 5.29 s⁻¹ and 0.7 s⁻¹, respectively. In assay [10], this molecule showed a Kd of 3 nM.
With B7, the kon was 1.78e+08 M⁻¹ s⁻¹ in assay [2]; 4.5e+07 M⁻¹ s⁻¹ in assay [3]; 1.49e+08 M⁻¹ s⁻¹ in assay [4]; 8.1e+07 M⁻¹ s⁻¹ in [5]; 1.42e+08 M⁻¹ s⁻¹ in assay [6]; 2.2e+07 M⁻¹ s⁻¹ in assay [7]. For the same molecule, the kon in [10] was 2.35e+08 M⁻¹ s⁻¹. The off-rate constant (koff) came to 0.223 s⁻¹ in assay [7] and 0.03 s⁻¹ in assay [10]. The Kd in assay [10] turned out to be 0.13 nM.
Take B8: binding in [11] was put at a Kd of 84 nM.
In assay [10], B9 returned a Kd of 1.5 nM, a koff of 0.383 s⁻¹ and an on-rate constant (kon) of 2.46e+08 M⁻¹ s⁻¹.

Values taken from paper PMC9849366, “Evolutionary fine-tuning of residual helix structure in disordered proteins manifests in complex structure and lifetime” (Communications Biology, 2023).
